Measured values from doi:10.1101/2024.07.08.602401 (bioRxiv, 2024).
Changes are numbered by the printed parent chain.

B1: 3H4v31 IgG1 (antibody, V domains shown)
VH: EVQLQESGPELVKPGASVKIPCKASGYTFTDYNMDWVKQSHGKSLEWIGDINPNNGGTIYNQKFKGKATLTVDKSSSTAYMELRSLTSEDTAVYYCARPDSAQYRWNWYFDVWGTGTTVTVSS
VL: DIVITQSPSSMYASLGERVTITCKASQDINSYLSWFQQKPGKSPKTLIYRANRLVDGVPSRFSGSGSGQDYSLTISSLEYEDMGIYYCLQYDEFPLTFGAGTKLELK
B2: wildtype 3H4 IgG1 (antibody, V domains shown)
VH: B1 VH with S101Y, A102Y, Q103G, Y104S, R105S, W106Y, N107G
VL: B1 VL

What was measured:
HLA-E-VL9 complex = HLA-E-VL9 complex (Homo sapiens, HLA-E*01:03, strain); experiment: BLI
[1] = target: HLA-E-… single chain trimer on transfected 293T cells (Homo sapiens HLA-E*01:03 assumed; …); experiment: flow cytometry on cells
[2] = target: HLA-E-[…] single chain trimer on transfected 293T cells (Homo sapiens HLA-E*01:03 assumed; …); experiment: flow cytometry on cells

Binder	Kd (HLA-E-VL9 complex) [nM]	binding result [1]	binding result [2]
B1	11.5		
B2		binds	binds
